# Measurements from the supplement of paper PMC10126150.
# ± gives the standard deviation of the averaged measurements.
# Tested on: ATP
# Test: switch fluorescence ratio, 500 uM ATP over buffer (Cy3 cluster intensity, sum of 5 cycles each) (fold (ratio)); higher = stronger signal-on switching upon ATP binding; sequences stand for … in TCGTCGGCAGCGTCAGATGTGTATAAGAGACAGTTTTTTTTTTTTTTTTTTTTTTTTT…TC
# Details: aptamer strand: ATP DNA aptamer (quencher-CACCTGGGGGAGTATTGCGGAGGAAGG + anchor), 100 nM annealed; ATP concentration: 500 uM
# Outline: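 Clusters with intensities outside 100-1000 RFU were excluded. The remaining Cy3-labelled switching-strand clusters on a modified Illumina MiSeq flow-cell had been annealed to 100 nM quencher-labelled ATP aptamer and imaged in selection buffer, then after 15 min with 500 uM ATP at 22 °C, for five cycles separated by NaOH stripping and re-annealing. The fluorescence ratio, averaged per switch-domain sequence, is each cluster's summed target-cycle Cy3 intensity over its summed buffer-cycle Cy3 intensity.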
# 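Note: ATP exposure 15 min at 22 °C before imaging.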
row,Sequence,switch fluorescence ratio
1,TGTTGTTGAT,0.985 ± 0.036
2,GTTTGCTGGT,1 ± 0.015
3,GACTGAGAGA,1.024 ± 0.0035
4,GCCTGGAAAT,1 ± 0.021
5,TATTACTTAG,1.062 ± 0.01
6,GCTTAGTGTC,0.975 ± 0.043
7,GGTTTTCGTT,0.99 ± 0.021
8,TAAGTTGGGT,0.994 ± 0.042
9,GGCCTGCCAT,0.9813 ± 0.0095
10,CCAGTGGTTT,1.01 ± 0.012
11,CATTAAGTCT,1.02 ± 0.036
12,TGGGTGTGCT,1.01 ± 0.03
13,TAGCGGTGTC,1.07 ± 0.021
14,TTCTGTAATT,1.02 ± 0.018
15,GAGGCTATCT,1.07 ± 0.0035
16,AATTTTTCGT,1 ± 0.027
17,AATTTCAAGT,1 ± 0.039
18,ATTTTGTTCT,0.993 ± 0.031
19,TGGTTCAGAG,0.969 ± 0.044
20,ATTTTCGGTG,1.01 ± 0.024
21,TTTTACCTAT,1.04 ± 0.021
22,ATTCAGGGCT,1.01 ± 0.013
23,CCGCCAGGTC,2.55 ± 0.13
24,TGTGGGAGGG,0.998 ± 0.042
25,GTGGGGGACT,1.28 ± 0.5
26,AAGTGGTGGG,0.985 ± 0.024

row,Sequence,switch fluorescence ratio
1,TAAGTTAGGG,0.972 ± 0.029
2,GCTCGGGGTT,1.01 ± 0.011
3,AAGTAAATTT,1.0226 ± 0.0004
4,ATCAGCGATC,2.24 ± 0.22
5,TGGATTAGGT,1.01 ± 0.021
6,AGTGCGTTTC,0.996 ± 0.031
7,GGAGCTTTGG,0.998 ± 0.035
8,GATGGCCGTG,0.978 ± 0.018
9,TTGACTTTTT,0.991 ± 0.016
10,ATGTCAGAGA,1.02 ± 0.037
11,GGCGCGATGG,1.55 ± 0.13
12,GCTTTTTATA,1.02 ± 0.027
13,TGAAATGGGG,0.98 ± 0.049
14,ACAATTGACT,1.099 ± 0.0039
15,GCCCCAGGGG,4.81 ± 0.36
16,TTCGAGACTT,1.05 ± 0.055
17,GGAATAGTAG,1.003 ± 0.0065
18,AGAAAAAAAG,1.02 ± 0.03
19,AATAGGTTGT,0.992 ± 0.015
20,GTTCCTGTGG,1.0156 ± 0.00081
21,AGAATTAACT,0.998 ± 0.025
22,CCAGTATGTG,1.04 ± 0.054
23,TAAAAGTTTT,1.01 ± 0.011
24,ATATCGTTGA,0.978 ± 0.021
25,TTGTTAGATC,0.984 ± 0.036
26,GAGTATGCCC,1.02 ± 0.039

row,Sequence,switch fluorescence ratio
1,TGAAGTCGAC,1 ± 0.068
2,GTTTCAGTGT,0.972 ± 0.021
3,TTTTTGCTGG,0.99 ± 0.029
4,ATTATGGTAT,1.02 ± 0.04
5,CACCTTACTT,1.26 ± 0.062
6,TTTAAAAATA,0.9966 ± 0.0049
7,TCGTAGGGTC,0.982 ± 0.047
8,ATAGAATGTG,1.007 ± 0.0082
9,CTAGACCCGG,0.988 ± 0.027
10,ATTTGACTTT,1.04 ± 0.031
11,AACGGGGGGG,1.05 ± 0.037
12,TGGTTTAATG,0.997 ± 0.015
13,GTGACACACC,1.15 ± 0.039
14,GGGTGTAGAG,1.05 ± 0.078
15,TCTGTGTTT,0.9348 ± 0.0089
16,GAACTCCGGG,1.1 ± 0.054
17,CGCTAGGTTG,1.01 ± 0.026
18,TTTCTGGAAT,0.991 ± 0.0019
19,CTGTGGGCCG,1 ± 0.02
20,AATGGTGATG,0.9904 ± 0.0077
21,AGGCTAGGAG,0.994 ± 0.053
22,ATGGGTGAAA,0.9867 ± 0.0084
23,GGTATGGAGT,1.013 ± 0.0057
24,CGGGGGTCCT,0.986 ± 0.015
25,TTTGATACGC,1.04 ± 0.031
26,TACGCAGAAT,3.38 ± 3.2

row,Sequence,switch fluorescence ratio
1,ACGTGGTATG,1.02 ± 0.015
2,GAGGGTAGCG,0.96 ± 0.059
3,CGTACGGTAA,1.09 ± 0.042
4,TTAAAAAACT,1.02 ± 0.031
5,GCGATTTTAA,1.02 ± 0.048
6,TAGGCAGGCG,1.01 ± 0.1
7,TAAATGTGTA,1.01 ± 0.036
8,ATGTGATCGC,0.986 ± 0.042
9,GGGGGGGAT,1.02 ± 0.025
10,CGCGATTATT,1.09 ± 0.04
11,ACAGCTTTTT,1.01 ± 0.013
12,GCCAGCAGCT,0.967 ± 0.014
13,AAGTGATGGT,0.9999 ± 0.0069
14,TTTTAATCAG,0.9842 ± 0.0036
15,GGGTAGTTCA,1.009 ± 0.0069
16,ACCTACGCGG,1.97 ± 0.22
17,GCTAGAAGGT,1.01 ± 0.03
18,TTGGGAGCGG,0.9769 ± 0.0038
19,CGGGAGTTGT,0.99 ± 0.042
20,TTTCCCGGGC,1.01 ± 0.056
21,TTTGGAGATA,1.03 ± 0.032
22,TTTGATTCTT,1.004 ± 0.0033
23,ACTTATGGGA,1.02 ± 0.019
24,GCTTTGTATG,0.9678 ± 0.0094
25,TTTGCTGGTG,1.1 ± 0.026
26,TTTGCTCACG,1.01 ± 0.029

row,Sequence,switch fluorescence ratio
1,CCCGGGGTAT,1.06 ± 0.057
2,TCGTCGTAGG,1.01 ± 0.03
3,TTTGTTGATA,0.983 ± 0.032
4,ACTTCGAATA,1.36 ± 0.07
5,ATAGTCCTCC,1.2 ± 0.0043
6,TTTTAATTAT,1.05 ± 0.026
7,CCTGCTTTGG,1.07 ± 0.083
8,AAGTTTTTCC,1.04 ± 0.021
9,TCCGCGGTTT,1.23 ± 0.18
10,TTTGAGAAGG,0.948 ± 0.022
11,ATAAGTGATC,0.981 ± 0.069
12,ATTACGTTGG,0.998 ± 0.024
13,AGTCGCCTGG,1.003 ± 0.002
14,ATTTTGTGTG,0.989 ± 0.011
15,ATTTTCAGGG,0.998 ± 0.067
16,AAAGGACGAG,0.983 ± 0.019
17,TGCTCGGGAC,1.09 ± 0.047
18,ATACTCAACA,1.248 ± 0.0099
19,TTAGATGCGG,1.013 ± 0.01
20,ACGAAGGGCG,1.019 ± 0.01
21,GAAGCTGTTT,1.026 ± 0.0042
22,GTAATTTTGA,1.01 ± 0.057
23,GGAAGTCGTT,0.994 ± 0.016
24,TCGGAGTAAC,1.667 ± 0.0081
25,TAATCAGGTA,1.1 ± 0.02
26,TGGCGTGTCA,1.02 ± 0.051

row,Sequence,switch fluorescence ratio
1,AAAAGGTTTC,1.02 ± 0.024
2,ATGGCTGGGT,0.971 ± 0.029
3,TGTGCTGCTG,1.06 ± 0.02
4,AAATAACTTT,1.027 ± 0.0051
5,TTTTGGACTC,1.007 ± 0.006
6,CGGAGGCTTG,1.01 ± 0.061
7,CGTGGCGGTA,1.04 ± 0.031
8,TGTGTGAGGT,1.06 ± 0.027
9,TAGTTATGAA,1.01 ± 0.016
10,CGATGGGGTA,1.01 ± 0.044
11,AATGGTAGAA,0.986 ± 0.048
12,GGGGATAGAA,0.982 ± 0.014
13,ATAGCTGGTT,0.991 ± 0.018
14,AGGGGGTTTA,0.999 ± 0.031
15,AAGGCCAGCG,0.953 ± 0.051
16,ATTTTTTGGG,0.9597 ± 0.0069
17,TTATTAGTCA,0.986 ± 0.041
18,GATGTTGCTT,1.02 ± 0.055
19,GGGGCTGTTG,0.966 ± 0.024
20,ACGGGGTCCG,0.95 ± 0.03
21,CAATGTCACC,1.06 ± 0.019
22,GGGATTCCTG,0.9777 ± 0.0061
23,ATTCAGTAAA,1 ± 0.022
